Data as given in patent US20110034670.

Test system: 4-(sulfamoyl)benzoyladenosine-pYEEI conjugate (9)

## Src tyrosine kinase
  enhancement of catalytic activity and phosphorylation: enhanced the catalytic activity and phosphorylation by at least 40%
